Experimental findings from article doi:10.1101/2021.03.07.432812 are described below.

Assay [1] addresses Y177A, W151A, and F141A. Put plainly: ITC.
The target of assay [2] is Spindlin1_(50-262) bound to DOCpep(1-3) (UniProt Q9Y657). Put plainly: ITC.

In the case of “DOCpep2, SPIN•DOC 228-239 peptide (from UniProt Q9BUA3 228-239)”, in assay [1], the fold reduction of binding against wild-type Spindlin1 was 1.5 to 3 fold. “histone H3 1-20 K4me3 peptide (from UniProt P68431 2-21)”: the fold decrease of binding affinity in the presence of DOCpep(1-3) in assay [2] came to 18 fold.
